In paper PMC4046795:

Molecular target: recombinant human EGFR/ErbB1 Fc chimera (rhEGFR) (human, UniProt P00533 25-645)
Test: SPR

B1: E07 anti-EGFR aptamer (structured_RNA)
RNA: GGCGCUCCGACCUUAGUCUCUGUGCCGCUAUAAUGCACGGAUUUAAUCGCCGUAGAAAAGCAUGUCAAAGCCGGAACCGUGUAGCACAGCAGAGAAUUAAAUGCCCGCCAUGACCAG
modifications: 2'-fluoropyrimidine
- Kd: 112 nM
